Data taken from publication PMC8440923, “Peptides Targeting the Interaction Between Erb1 and Ytm1 Ribosome Assembly Factors” (Frontiers in Molecular Biosciences, 2021).

B1: Erb1 (Chaetomium thermophilum ribosome assembly factor) (natural protein, UniProt G0SCK6 1-801, looked up)
chain: MGSKIVEKKRKSRDSDSESDNELGDGLFDGVLSQSEDEEDYIPSSEVDEDDDDDADESASEDSDDSNDSEDDEVEEDDEALLSDEIPSEGESEKDQDLAESKESKQDQDKEPSEPEILEPFVDPPRKEDEELEDRNYRIEKDANGGIRYVYDEIDPVYDSDDTDYNVPVNTIGNIPLSFYDSYPHIGYDINGKKIMRPATGDALQNLLDSIEVPEGWTGLTDPNTGKPLNLSRDELELIRKVQQGLIPDDVEDPYPDTVEWFTSVEEKMPLSAAPEPKRRFIPSKNEAKQIMKLVRAIREGRILPYKPPEEREREELEKEEEFYDLWQNEEPQPPNPMHIPAPKLPPPGYDLSYNPPPEYLPTKEEREEWEKMDPEDREKDYLPTKYDSLRKVPAWGNFVKERFERCMDLYLAPRVRKNRLNIDPNSLLPKLPSPDELKPFPTVQQTIFRGHEGRVRSVAIDPTGVALATGGDDGTVRVWELLTGRQVWSVKLNGDEAVNTVRWRPTKDTFILAAAAGEDIFLMIPTHPSVTPALDQASRDILNAGFGHATNGKQQANLPPGKEPPGKWARPGTRLEDEGVLLRITVRSTIKAISWHRRGDHFATVSPSGQRSSVAIHTLSKHLTQIPFRKLNGLAQTASFHPLRPLFFVATQRSIRCYDLQKLELVKIVQPGAKWISSFDVHPGGDNLVVGSYDKRLLWHDLDLSNRPYKTMRFHTEAIRAVRFHKGGLPLFADASDDGSLQIFHGKVPNDQLENPTIVPVKMLKGHKVVNKLGVLDIDWHPREPWCVSAGADGTARLWM
notes: Erb1, Chaetomium thermophilum; cloned in pET28-NKI/LIC 6His/3C; Erb1 was held on Ni-NTA biosensors; source: E. coli (DE3) BL21 CodonPlus (RIPL), auto-induction, purified (Histrap-HP Ni, HiTrap Heparin, Superdex 200 SEC)
B2: Ytm1 (Chaetomium thermophilum ribosome assembly factor) (natural protein)
chain: MDAPMEDAPAPVAQVKVIFTTTEPDLELPESKRQLLVPADIRRYGLSRILNSESMLDTGSIPFDFLINGSFLRSSLEDYLTSNGLSLETTLTLQYVRSLIPPVYEASFEHDDWVSAVDVLSATSPAGRWSSAANSSAAVQPGQERVLSASYDGLLRIWNASGSVIATSPSGSHGGHTASIKAAKFLTSDRLASAGMDRTVRVWKYTESDHFTGELKPTLELYGHTGSVDWLDVDGHSKHILTASADGAIGFWSASKASAPEPDASLLPGAHVSKRRKATSSVSTAQRGPLGLWSIHTAPATAAIFDPRDRTVAYSASQDHTVRTLDLTTGQVVSTLTLTHPLLSLSALTRAGTTSPLLAAGTSARHITMVDPRASSATTSVMTLRGHANKVVSLSPSPENEYSLVSGSHDGTCRVWDLRSVRPATKEEGSLGGVSEPVYVIERESWASKGKKKRPVAGDGCKVFSVVWDKLGIFSGGEDKKVQVNRGRNIVTEQK
notes: Ytm1, Chaetomium thermophilum; YTM1 gene amplified from total cDNA and cloned in pOPIN-F; For MST, Ytm1 was labelled with the Red-NHS second-generation dye; source: Sf9 insect cells (baculovirus), purified (Histrap-HP Ni, Superdex 200 SEC)

How the values were obtained:
Details in all cases: both partners purified
[1] = molecular target: B2; assay: BLI; interference assay; Ytm1 (80 µg/ml) immobilised on Ni-NTA biosensor; 20 µM Erb1 preincubated with equimolar Ytm1-derived peptide (P4-P6) as analyte; 50 mM HEPES pH 7.5, 150 mM NaCl, 5% glycerol, 2 mM BME
[2] = molecular target: B1; assay: BLI; interference assay; Erb1 (80 µg/ml) immobilised on Ni-NTA biosensor; 5 µM Ytm1 preincubated 30 min with equimolar Erb1-derived peptide (P1-P3) as analyte; 50 mM HEPES pH 7.5, 150 mM NaCl, 5% glycerol, 2 mM BME
[3] = molecular target: B1; assay: BLI; BLItz; Erb1 (80 µg/ml) immobilised on Ni-NTA biosensor, increasing concentrations of Ytm1 as analyte; 50 mM HEPES pH 7.5, 150 mM NaCl, 5% glycerol, 2 mM BME; reference without peptide
[4] = molecular target: B1; assay: BLI; BLItz; Ytm1 (80 µg/ml) immobilised on Ni-NTA biosensor, Erb1 as analyte; 50 mM HEPES pH 7.5, 150 mM NaCl, 5% glycerol, 2 mM BME; reference without peptide

Row | Binder | KD after preincubation of Erb1 with equimolar P6 [1] [nM] | KD after preincubation of Ytm1 with equimolar P1 [2] [nM] | KD after preincubation of Ytm1 with equimolar P3 [2] [nM] | Kd [3] [nM] | Kd [4] [nM]
1 | B1 | 2400 |  |  |  | 
2 | B2 |  | 190 | 170 | 32.3 | 229
